Experimental data published in patent US20240368302A1 (NANOMAB TECHNOLOGY, published 2024).
Changes are numbered by the printed parent chain.

T1: mouse TROP2-Fc antigen protein (mouse, UniProt Q8BGV3 25-270, limits assumed)
T1 construct: not shown: Fc
T1 sequence (looked up): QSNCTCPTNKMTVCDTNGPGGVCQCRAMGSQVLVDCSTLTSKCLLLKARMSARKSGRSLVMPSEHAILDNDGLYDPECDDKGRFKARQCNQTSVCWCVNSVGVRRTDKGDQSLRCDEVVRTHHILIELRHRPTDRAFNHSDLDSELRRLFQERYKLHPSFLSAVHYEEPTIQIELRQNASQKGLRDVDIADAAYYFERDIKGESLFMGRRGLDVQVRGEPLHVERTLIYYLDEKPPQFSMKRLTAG

T2: human TROP2-Fc protein antigen (human, UniProt P09758 27-274)
T2 construct: extracellular domain; also called CRD + TY-1 + CPD; not shown: IgG Fc of the pFUSE-IgG plasmid
T2 sequence (looked up): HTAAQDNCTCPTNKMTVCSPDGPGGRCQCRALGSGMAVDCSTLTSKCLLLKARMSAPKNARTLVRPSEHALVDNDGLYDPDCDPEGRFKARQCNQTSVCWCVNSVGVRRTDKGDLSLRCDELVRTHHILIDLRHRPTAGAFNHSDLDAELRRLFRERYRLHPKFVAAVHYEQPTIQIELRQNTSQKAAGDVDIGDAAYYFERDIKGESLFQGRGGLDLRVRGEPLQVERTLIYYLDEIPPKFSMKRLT

T3: rhesus monkey TROP2-Fc antigen protein (rhesus monkey, UniProt A0A5F8AGB8 27-274)
T3 construct: not shown: Fc
T3 sequence: T2 sequence (looked up) with M36V, S67N, I204V

T4: Fc antigen protein of human TROP2 domain CPD (human, UniProt P09758 146-274, limits assumed)
T4 construct: domain: CPD; not shown: Fc
T4 sequence (looked up): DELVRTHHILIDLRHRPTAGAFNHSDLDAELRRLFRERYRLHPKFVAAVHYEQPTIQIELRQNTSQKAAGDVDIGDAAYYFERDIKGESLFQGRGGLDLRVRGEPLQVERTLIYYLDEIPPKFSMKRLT

T5: Fc antigen protein of human TROP2 domains TY-1 + CPD (human, UniProt P09758 70-274, limits assumed)
T5 construct: domain: TY-1 + CPD; not shown: Fc
T5 sequence (looked up): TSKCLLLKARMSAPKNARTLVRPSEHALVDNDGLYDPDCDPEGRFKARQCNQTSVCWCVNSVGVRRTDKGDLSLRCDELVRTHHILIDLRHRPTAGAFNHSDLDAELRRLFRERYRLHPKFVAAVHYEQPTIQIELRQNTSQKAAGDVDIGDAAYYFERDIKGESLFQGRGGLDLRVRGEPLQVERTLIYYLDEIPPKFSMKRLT

B1: MY1530-1-20 (VHH)
VHH: QVQLQESGGGSVLAGGSLRLSCTVSGSFVSSRSMAWFRQTPGKEREGVAAISQYGDPKYAGSVKGRFTMSRDNAKNTLLLQMNSLKPEDTAIYYCAAGEAWELATLSRSDYIYWGQGTQVTVSS
notes: Expressed in E. coli WK6 from vector pMECS, purified on a nickel column; also called MY1530-1-20 VHH; anti-TROP2 single domain antibody
B2: MY1530-4-28 (VHH)
VHH: QVQLQESGGGSVQAGGSLRLSCAASGFSVSTTWMHWVRQAPGKGLEWVSRIAINDHTFYAESVKGRFTMSTDNAKNTVYLQMTSLKPEDTAVYYCSPYSDYRIRGQGTQVTVSS
notes: Expressed in E. coli WK6 from vector pMECS, purified on a nickel column; also called MY1530-4-28 VHH; anti-TROP2 single domain antibody
B3: MY1530-2-53 (VHH)
VHH: QVQLQESGGGSVQAGGSLRLSCAVSGLTSSTTCMGWFRQAPGKEREGVAVIRSSGETTAADSVKGRFTISRDNAKNTLSLQMTSLKPEDTAMYYCAAAWPYSGCLLPLSSGDFTYWGQGTQVTVSS
notes: Expressed in E. coli WK6 from vector pMECS, purified on a nickel column; also called MY1530-2-53 VHH; anti-TROP2 single domain antibody
B4: MY1530-5-17 (VHH)
VHH: QVQLQESGGGSVQPGGSLRLSCVVSGYTVSSVCMAWFRQAPGMERELVAGFYHSGGTYYGDSVKGRFTASQDNAKNTLYLQMNSLKPEDTATYYCARARYPSSACGTSPSNYNIWGQGTQVTVSS
notes: Expressed in E. coli WK6 from vector pMECS, purified on a nickel column; also called MY1530-5-17 VHH; anti-TROP2 single domain antibody
B5: MY1530-5-54 (VHH)
VHH: B4 VHH with V24A, V29A, M43K, F51Y
notes: Expressed in E. coli WK6 from vector pMECS, purified on a nickel column; also called MY1530-5-54 VHH; anti-TROP2 single domain antibody
B6: MY1530-4-22 (VHH)
VHH: B4 VHH with P14A, R19K
notes: Expressed in E. coli WK6 from vector pMECS, purified on a nickel column; also called MY1530-4-22 VHH; anti-TROP2 single domain antibody
B7: MY1530-6-1 (VHH)
VHH: QVQLQESGGGSVQAGGSLRLSCAASGFPYSSYSMGWFRQAPGKEREGVAAIYTGGGSTYYAGSVKGRFTISQEHATNTLYLQMNSLKPEDTAMYYCAANMVDNGVISGIQALGVRYYNYWGQGTQVTVSS
notes: Expressed in E. coli WK6 from vector pMECS, purified on a nickel column; also called MY1530-6-1 VHH; anti-TROP2 single domain antibody
B8: MY1530-1-26 (VHH)
VHH: QVQLQESGGGSVQAGGSLRLSCVVSGYTTTRYSMAWFRQAPGKEREGVAGIDTDVLTTYKPSVEGRFTISRDSAKRTLYLQMNSLKPEDTAMYYCATGTGNFLALDPVWYNTWGQGTQVTVSS
notes: Expressed in E. coli WK6 from vector pMECS, purified on a nickel column; also called MY1530-1-26 VHH; anti-TROP2 single domain antibody

target: T1, mouse TROP2-Fc antigen protein; experiment: ELISA, plate coated with mouse TROP2-Fc

Row | binding result | Binder
1 | no binding | B1
2 | no binding | B2
3 | no binding | B3
4 | no binding | B4
5 | no binding | B5
6 | no binding | B6
7 | no binding | B7
8 | no binding | B8

target: T2, human TROP2-Fc protein antigen; experiment: SPR (Biacore 8K), human TROP2-Fc on CM-5 chip, VHH in flow
Method: The fixed phase human TROP2-Fc antigen proteins were fixed on the surface of CM-5 sensing chip using carboxyl amino reaction. The anti-TROP2 single domain antibodies were diluted with HBS buffer to different concentrations, and the anti-TROP2 single domain antibodies were added at a flow rate of 30 μl/min, binding for 90 seconds, dissociating for 600 seconds, and the binding process between the anti-TROP2 single domain antibody and the antigen was observed. After rinsing with 10 mM glycine solution for chip regeneration, the next anti TROP2 single domain antibody assay was proceeded.

Row | Kd | koff | kon | Binder
9 | 0.35 nM | 0.000179 s⁻¹ | 509000 M⁻¹ s⁻¹ | B1
10 | 4.89 nM | 0.000717 s⁻¹ | 147000 M⁻¹ s⁻¹ | B2
11 | 9.83 nM | 0.00443 s⁻¹ | 451000 M⁻¹ s⁻¹ | B3
12 | 0.27 nM | 0.00011 s⁻¹ | 405000 M⁻¹ s⁻¹ | B4
13 | 0.2 nM | 8.99e-05 s⁻¹ | 449000 M⁻¹ s⁻¹ | B5
14 | 0.73 nM | 0.000187 s⁻¹ | 257000 M⁻¹ s⁻¹ | B6
15 | 0.21 nM | 0.000227 s⁻¹ | 1.09e+06 M⁻¹ s⁻¹ | B7
16 | 1.89 nM | 0.00304 s⁻¹ | 1.61e+06 M⁻¹ s⁻¹ | B8

target: T2, human TROP2-Fc protein antigen; experiment: ELISA, coated human TROP2-Fc, Kd calculated from absorbance

Row | Kd | Binder
17 | 1.13 nM | B1
18 | 1.2 nM | B2
19 | 4.23 nM | B3
20 | 1.39 nM | B4
21 | 1.28 nM | B5
22 | 1.29 nM | B6
23 | 1.51 nM | B7
24 | 4.86 nM | B8

target: T3, rhesus monkey TROP2-Fc antigen protein; experiment: ELISA, coated rhesus monkey TROP2-Fc, Kd calculated from absorbance
Method: (§1) The ELISA plates were coated with TROP2-Fc antigen proteins from human, mouse, and rhesus monkey overnight at 4° C. The plates were washed for 4 times with PBS-T the next day, added with 1% BSA, and blocked at room temperature for 2 hours. The plates were washed for 4 times with PBS-T, added with the anti-TROP2 single domain antibodies diluted in gradient, and standing at 37° C. for 1 hour. The plates were washed for 4 times with PBS-T, added with mouse anti-His-HRP antibody, and standing at 37° C. for 1 hour. The plates were washed for 4 times with PBS-T, added with TMB soluble substrate, and standing at room temperature for 10 minutes.

Row | Kd | Binder
25 | 2.33 nM | B1
26 | 1.38 nM | B2
27 | 28.1 nM | B3
28 | 1.78 nM | B4
29 | 1.73 nM | B5
30 | 1.67 nM | B6
31 | 4.47 nM | B7
32 | 29.4 nM | B8

target: T4, Fc antigen protein of human TROP2 …; experiment: ELISA, coated Fc protein of human TROP2 CPD, Kd calculated from absorbance
Method: as §1, with “Fc” for “TROP2-Fc”, “of different human TROP2 domains” for “from human, mouse, and rhesus monkey”, “minutes. […] The anti-TROP2 single domain antibodies of the present invention bind to different TROP2 domains.” for “minutes.”

Row | Kd | Binder
33 | 0.53 nM | B4
34 | 0.53 nM | B5
35 | 1.02 nM | B6

target: T5, Fc antigen protein of human TROP2 …; experiment: ELISA, coated Fc protein of human TROP2 TY-1 + CPD, Kd calculated from absorbance
Method: as §1, with “Fc” for “TROP2-Fc”, “of different human TROP2 domains” for “from human, mouse, and rhesus monkey”, “minutes. […] The anti-TROP2 single domain antibodies of the present invention bind to different TROP2 domains.” for “minutes.”

Row | Kd | Binder
36 | 0.53 nM | B4
37 | 0.53 nM | B5
38 | 0.53 nM | B6
39 | 2.14 nM | B7

target: T2, human TROP2-Fc protein antigen; experiment: ELISA, coated Fc protein of human TROP2 CRD + TY-1 + CPD, Kd calculated from absorbance
Method: as §1, with “Fc” for “TROP2-Fc”, “of different human TROP2 domains” for “from human, mouse, and rhesus monkey”, “minutes. […] The anti-TROP2 single domain antibodies of the present invention bind to different TROP2 domains.” for “minutes.”

Row | Kd | Binder
40 | 1.13 nM | B1
41 | 1.2 nM | B2
42 | 4.23 nM | B3
43 | 1.39 nM | B4
44 | 1.28 nM | B5
45 | 1.29 nM | B6
46 | 1.51 nM | B7
47 | 4.86 nM | B8
